From patent US20140274782A1, “AFFINITY REAGENTS AND METHODS FOR DETECTION, PURIFICATION, AND PROTEOMIC ANALYSIS OF METHYLATED PROTEINS” (The Board of Trustees of the Leland Stanford Junior …, priority 2013, published 2014)

B1: HPSE2 (protein, UniProt Q8WWQ2 42-592, looked up)
Inactive heparanase-2: GDRRPLPVDRAAGLKEKTLILLDVSTKNPVRTVNENFLSLQLDPSIIHDGWLDFLSSKRLVTLARGLSPAFLRFGGKRTDFLQFQNLRNPAKSRGGPGPDYYLKNYEDDIVRSDVALDKQKGCKIAQHPDVMLELQREKAAQMHLVLLKEQFSNTYSNLILTARSLDKLYNFADCSGLHLIFALNALRRNPNNSWNSSSALSLLKYSASKKYNISWELGNEPNNYRTMHGRAVNGSQLGKDYIQLKSLLQPIRIYSRASLYGPNIGRPRKNVIALLDGFMKVAGSTVDAVTWQHCYIDGRVVKVMDFLKTRLLDTLSDQIRKIQKVVNTYTPGKKIWLEGVVTTSAGGTNNLSDSYAAGFLWLNTLGMLANQGIDVVIRHSFFDHGYNHLVDQNFNPLPDYWLSLLYKRLIGPKVLAVHVAGLQRKPRPGRVIRDKLRIYAHCTNHHNHNYVRGSITLFIINLHRSRKKIKLAGTLRDKLVHQYLLQPYGQEGLKSKSVQLNGQPLVMVDDGTLPELKPRPLRAGRTLVIPPVTMGFYVVKNVNALACRYR
B2: HNRNPH1 (protein, UniProt P31943 1-449, looked up)
Heterogeneous nuclear …: MMLGTEGGEGFVVKVRGLPWSCSADEVQRFFSDCKIQNGAQGIRFIYTREGRPSGEAFVELESEDEVKLALKKDRETMGHRYVEVFKSNNVEMDWVLKHTGPNSPDTANDGFVRLRGLPFGCSKEEIVQFFSGLEIVPNGITLPVDFQGRSTGEAFVQFASQEIAEKALKKHKERIGHRYIEIFKSSRAEVRTHYDPPRKLMAMQRPGPYDRPGAGRGYNSIGRGAGFERMRRGAYGGGYGGYDDYNGYNDGYGFGSDRFGRDLNYCFSGMSDHRYGDGGSTFQSTTGHCVHMRGLPYRATENDIYNFFSPLNPVRVHIEIGPDGRVTGEADVEFATHEDAVAAMSKDKANMQHRYVELFLNSTAGASGGAYEHRYVELFLNSTAGASGGAYGSQMMGGMGLSNQSSYGGPASQQLSGGYGGGYGGQSSMSGYDQVLQENSSDFQSNIA
B3: RALY (protein, UniProt Q9UKM9 2-306, looked up)
RNA-binding protein Raly: SLKLQASNVTNKNDPKSINSRVFIGNLNTALVKKSDVETIFSKYGRVAGCSVHKGYAFVQYSNERHARAAVLGENGRVLAGQTLDINMAGEPKPDRPKGLKRAASAIYSGYIFDYDYYRDDFYDRLFDYRGRLSPVPVPRAVPVKRPRVTVPLVRRVKTNVPVKLFARSTAVTTSSAKIKLKSSELQAIKTELTQIKSNIDALLSRLEQIAAEQKANPDGKKKGDGGGAGGGGGGGGSGGGGSGGGGGGGSSRPPAPQENTTSEAGLPQGEARTRDDGDEEGLLTHSEEELEHSQDTDADDGALQ
B4: ORC3 (protein, UniProt Q9UBD5 1-711, looked up)
Origin recognition complex …: MATSSMSKGCFVFKPNSKKRKISLPIEDYFNKGKNEPEDSKLRFETYQLIWQQMKSENERLQEELNKNLFDNLIEFLQKSHSGFQKNSRDLGGQIKLREIPTAALVLGVNVTDHDLTFGSLTEALQNNVTPYVVSLQAKDCPDMKHFLQKLISQLMDCCVDIKSKEEESVHVTQRKTHYSMDSLSSWYMTVTQKTDPKMLSKKRTTSSQWQSPPVVVILKDMESFATKVLQDFIIISSQHLHEFPLILIFGIATSPIIIHRLLPHAVSSLLCIELFQSLSCKEHLTTVLDKLLLTTQFPFKINEKVLQVLTNIFLYHDFSVQNFIKGLQLSLLEHFYSQPLSVLCCNLPEAKRRINFLSNNQCENIRRLPSFRRYVEKQASEKQVALLTNERYLKEETQLLLENLHVYHMNYFLVLRCLHKFTSSLPKYPLGRQIRELYCTCLEKNIWDSEEYASVLQLLRMLAKDELMTILEKCFKVFKSYCENHLGSTAKRIEEFLAQFQSLDETKEEEDASGSQPKGLQKTDLYHLQKSLLEMKELRRSKKQTKFEVLRENVVNFIDCLVREYLLPPETQPLHEVVYFSAAHALREHLNAAPRIALHTALNNPYYYLKNEALKSEEGCIPNIAPDICIAYKLHLECSRLINLVDWSEAFATVVTAAEKMDANSATSEEMNEIIHARFIRAVSELELLGFIKPTKQKTDHVARLTWGGC
B5: CPSF6 (protein, UniProt Q16630 1-551, looked up)
Cleavage and polyadenylation …: MADGVDHIDIYADVGEEFNQEAEYGGHDQIDLYDDVISPSANNGDAPEDRDYMDTLPPTVGDDVGKGAAPNVVYTYTGKRIALYIGNLTWWTTDEDLTEAVHSLGVNDILEIKFFENRANGQSKGFALVGVGSEASSKKLMDLLPKRELHGQNPVVTPCNKQFLSQFEMQSRKTTQSGQMSGEGKAGPPGGSSRAAFPQGGRGRGRFPGAVPGGDRFPGPAGPGGPPPPFPAGQTPPRPPLGPPGPPGPPGPPPPGQVLPPPLAGPPNRGDRPPPPVLFPGQPFGQPPLGPLPPGPPPPVPGYGPPPGPPPPQQGPPPPPGPFPPRPPGPLGPPLTLAPPPHLPGPPPGAPPPAPHVNPAFFPPPTNSGMPTSDSRGPPPTDPYGRPPPYDRGDYGPPGREMDTARTPLSEAEFEEIMNRNRAISSSAISRAVSDASAGDYGSAIETLVTAISLIKQSKVSADDRCKVLISSLQDCLHGIESKSYGSGSRRERSRERDHSRSREKSRRHKSRSRDRHDDYYRERSRERERHRDRDRDRDRERDREREYRHR

Tested on: 3×MBT domain of L3MBTL1
Assay: Triple SILAC pull-down, 3xMBT/3xMBTD355N ratio (cytoplasmic, nuclear and chromatin fractions of 293T cells);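 further: proteins quantified with MaxQuant, requiring at least two unique peptides and quantification in both label directions, normalized to the mean of proteins from a digested loading control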
Format: binding, human
Conditions: SILAC ratio, pull-down 3xMBT vs 3xMBTD355N; experiment with UNC0638 in heavy SILAC media

Molecule | 3xMBT/D355N UNC Heavy [log base 2]
B1 | −0.14
B2 | 1.85
B3 | 1.15
B4 | 1.54
B5 | 1.89

Same assay, conditions: SILAC ratio, pull-down 3xMBT vs 3xMBTD355N; experiment with UNC0638 in light SILAC media

Molecule | 3xMBT/D355N UNC Light [log base 2]
B1 | 3.81
B2 | 2.27
B3 | 3.37
B4 | 2.54
B5 | 3.10

Target: T1, G9a and GLP (Homo sapiens, UniProt Q96KQ7+Q9H9B1)
T1 sequence (Q96KQ7 2-1210 limits assumed): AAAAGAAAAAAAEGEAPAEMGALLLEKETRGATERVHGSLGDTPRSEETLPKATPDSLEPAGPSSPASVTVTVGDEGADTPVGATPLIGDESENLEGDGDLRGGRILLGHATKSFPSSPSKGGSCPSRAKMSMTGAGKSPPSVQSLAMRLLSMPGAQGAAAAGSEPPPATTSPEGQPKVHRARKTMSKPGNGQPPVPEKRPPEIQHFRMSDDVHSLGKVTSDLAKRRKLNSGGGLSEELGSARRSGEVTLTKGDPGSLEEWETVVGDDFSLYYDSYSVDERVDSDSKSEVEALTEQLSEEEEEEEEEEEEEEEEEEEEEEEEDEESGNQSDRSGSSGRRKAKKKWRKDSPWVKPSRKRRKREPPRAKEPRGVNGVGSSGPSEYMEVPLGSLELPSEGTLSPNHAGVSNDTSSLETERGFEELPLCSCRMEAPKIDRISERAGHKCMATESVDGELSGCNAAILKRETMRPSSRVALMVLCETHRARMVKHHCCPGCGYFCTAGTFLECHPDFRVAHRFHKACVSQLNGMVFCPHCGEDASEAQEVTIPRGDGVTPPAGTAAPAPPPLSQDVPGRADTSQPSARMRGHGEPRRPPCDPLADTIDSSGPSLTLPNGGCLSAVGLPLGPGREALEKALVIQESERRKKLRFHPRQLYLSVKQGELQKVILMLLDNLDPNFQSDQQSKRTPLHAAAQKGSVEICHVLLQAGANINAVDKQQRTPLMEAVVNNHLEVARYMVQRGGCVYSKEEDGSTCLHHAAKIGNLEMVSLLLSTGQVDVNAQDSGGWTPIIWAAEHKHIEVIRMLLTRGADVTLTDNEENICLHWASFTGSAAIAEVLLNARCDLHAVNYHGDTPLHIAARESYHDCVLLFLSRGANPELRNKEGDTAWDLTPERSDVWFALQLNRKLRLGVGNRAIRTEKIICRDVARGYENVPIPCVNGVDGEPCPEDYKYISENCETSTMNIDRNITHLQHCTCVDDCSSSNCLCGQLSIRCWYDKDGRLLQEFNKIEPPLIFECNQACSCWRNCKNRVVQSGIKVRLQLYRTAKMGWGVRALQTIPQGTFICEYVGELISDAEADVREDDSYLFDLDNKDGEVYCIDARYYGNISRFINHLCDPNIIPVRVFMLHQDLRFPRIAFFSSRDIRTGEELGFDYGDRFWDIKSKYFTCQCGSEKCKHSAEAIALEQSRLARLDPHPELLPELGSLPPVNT
T1 sequence (Q9H9B1 2-1298 limits assumed): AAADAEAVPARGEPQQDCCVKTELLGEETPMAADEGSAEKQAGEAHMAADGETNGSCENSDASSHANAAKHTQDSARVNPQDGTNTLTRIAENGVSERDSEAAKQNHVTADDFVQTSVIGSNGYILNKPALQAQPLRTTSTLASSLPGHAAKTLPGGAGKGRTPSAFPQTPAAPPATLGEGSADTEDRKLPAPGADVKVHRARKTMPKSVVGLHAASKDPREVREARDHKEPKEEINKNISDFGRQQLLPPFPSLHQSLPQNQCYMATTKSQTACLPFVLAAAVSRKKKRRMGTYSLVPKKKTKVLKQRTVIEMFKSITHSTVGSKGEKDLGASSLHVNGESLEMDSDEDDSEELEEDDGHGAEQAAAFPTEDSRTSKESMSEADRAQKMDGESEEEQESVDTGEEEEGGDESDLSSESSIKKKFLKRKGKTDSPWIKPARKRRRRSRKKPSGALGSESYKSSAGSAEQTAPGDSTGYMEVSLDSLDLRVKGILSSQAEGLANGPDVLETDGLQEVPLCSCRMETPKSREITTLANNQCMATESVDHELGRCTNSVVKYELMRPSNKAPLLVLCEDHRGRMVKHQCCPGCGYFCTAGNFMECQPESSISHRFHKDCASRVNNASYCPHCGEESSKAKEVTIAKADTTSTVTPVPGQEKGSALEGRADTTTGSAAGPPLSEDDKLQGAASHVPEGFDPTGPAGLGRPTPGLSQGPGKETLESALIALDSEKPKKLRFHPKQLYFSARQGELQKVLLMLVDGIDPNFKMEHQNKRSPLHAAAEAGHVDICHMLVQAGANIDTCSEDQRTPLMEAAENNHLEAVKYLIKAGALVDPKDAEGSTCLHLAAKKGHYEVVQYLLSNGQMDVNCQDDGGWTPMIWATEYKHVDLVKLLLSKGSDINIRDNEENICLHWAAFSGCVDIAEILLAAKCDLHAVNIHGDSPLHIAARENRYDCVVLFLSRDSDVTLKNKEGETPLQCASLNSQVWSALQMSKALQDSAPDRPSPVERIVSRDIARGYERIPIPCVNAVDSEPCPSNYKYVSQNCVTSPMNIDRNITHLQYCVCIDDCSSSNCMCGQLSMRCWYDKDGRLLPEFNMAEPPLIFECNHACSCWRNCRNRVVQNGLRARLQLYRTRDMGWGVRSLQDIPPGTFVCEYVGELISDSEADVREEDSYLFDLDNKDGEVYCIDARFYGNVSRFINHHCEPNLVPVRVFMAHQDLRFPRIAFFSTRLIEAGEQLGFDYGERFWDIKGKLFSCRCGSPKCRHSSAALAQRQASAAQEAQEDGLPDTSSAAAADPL
Assay: Triple SILAC pull-down after UNC0638 treatment of 293T cells, DMSO/UNC0638 ratio of protein captured by 3×MBT;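 further: mass spectrometry (Q-Exactive) SILAC quantitation, DMSO/UNC0638 ratio computed after subtracting 3×MBTD355N mutant pull-down background, only proteins with at least twofold 3×MBT over mutant signal considered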
Format: cell-based
Parameters: endogenous in cells; host or cells: HEK 293T
Conditions: SILAC ratio DMSO/UNC0638 of protein pulled down with 3xMBT; UNC0638 in heavy SILAC media

Molecule | Relative to UNC0638 UNC Heavy [log base 2]
B2 | 0.24
B3 | 0.12
B4 | 0.25
B5 | 0.30

Same assay, conditions: SILAC ratio DMSO/UNC0638 of protein pulled down with 3xMBT; UNC0638 in light SILAC media

Molecule | Relative to UNC0638 UNC Light [log base 2]
B1 | 4.14
B2 | 0.19
B3 | 0.31
B4 | 0.17
B5 | 0.09

Same assay, conditions: average of UNC Light and UNC Heavy experiments

Molecule | Relative to UNC0638 Average [log base 2]
B1 | 4.14
B2 | 0.21
B3 | 0.21
B4 | 0.21
B5 | 0.20
